Assay results reported in patent US7927849B2, “Laccase enzyme and use thereof” (AB Enzymes OY, priority 2004, dated 2011).

Legend:
[1] = Isoelectric focusing (pI); type: physicochemical; conditions: pH range 3-9, ABTS staining
Description: Molecular weight of the Thielavia arenaria laccase (wt TaLcc1) was determined on SDS-PAGE according to Laemmli (1970). The gels used in the SDS-PAGE analysis were ready-made 12% Tris HCl gels (BioRad). Protein bands were visualized by staining with Coomassie Brilliant Blue (R 350; Pharmacia) and compared with molecular weight markers (Prestained Protein Marker Broad Range #7708S; New England BioLabs, Beverly, Mass.). The molecular weight of the Thielavia areanaria laccase was approximately 80 kDa. The isoelectric point of the laccase was determined with isoelectric focusing within the pH range of 3-9 (Pharmalyte IEF, Pharmacia) on a LKB 2117 Multiphor II Electrophoresis System (LKB Pharmacia, Bromma, Sweden) according to the manufacturer's instructions.
The purified recombinant Thielavia arenaria TaLcc1 was characterized in terms of pH optimum, thermal stability, and pI as described in Example 2. The molecular weight was determined by MALDI-TOF mass spectrometry on a Ultraflex™ time-of-flight instrument (BrukerDaltonics, Germany) as previously described (Palonen et al., 2003). The redox potential of TaLcc1 was also determined with a combined Pt-AgCl/KCl microelectrode at pH 5.0 according to Sigoillot et al (2004)

[2] = Denim bleaching at different temperatures (Launder Ometer); conditions: 200 nkat/g, 30 min, pH 6
Description: The test system and denim were as in Example 7, except that the conditions during the laccase and mediator treatment in Launder were 30 min, pH 6 and temperature 30-80° C. Also, the enzyme was inactivated by an alkaline treatment instead of raising the temperature in Launder as follows. After removing swatches from the containers they were soaked in warm water containing NaOH (pH 11.5) for 10 min and rinsed carefully with warm water. The swatches were dried half-dry in a tumbler and after that air dried. The bleaching effect was evaluated by measuring the colour as reflectance values as in Example 7.

[3] = Denim bleaching, effect of enzyme dosage (Wascator); conditions: 60° C., pH 6
Description: Lee Cooper Jeans previously washed with ECOSTONE® cellulases (Example 7) were treated with a TaLcc1 laccase product from Trichoderma strain RF5598 and DeniLite Base from Novozymes using different laccase dosages. The laccase treatments were performed with Electrolux's Wascator FOM 71 CLS washer extractor under optimal conditions for each enzyme, shown in Table 13. Methyl syringate (Example 7) was used as a mediator. Laccase was inactivated after draining by raising the pH above 11 by NaOH (10 min, 60° C.) and rinsing 3 times. The fabrics were dried in a tumbler.
The bleaching effect was evaluated by measuring the colour after laccase treatment as reflectance values (as in Example 7) and comparing the values to previously measured values after cellulase treatment.

[4] = Decolorization of dyes; set-up: key: −: no visually detectable change; +: visually detectable fading of the colour; ++: considerable fading of the colour; +++: complete/almost complete decolorization; conditions: dye 12 mg/100 ml, 50° C., pH 6
Description: (§1) The TaLcc1 laccase preparation from strain RF5597 was tested for its ability to decolourize different dyes in the presence or absence of the methyl syringate mediator (Example 7). The experiments were carried out in 250 ml shake flasks containing 100 ml of dye dissolved in citrate phosphate buffer pH 6. Dye concentration 12 mg/100 ml was used. Enzyme was dosed 200 nkat (or 20 nkat) per 100 ml and the mediator 10 (or 1) mg per 100 ml. The shake flasks were incubated at 50° C. for 30, 90 and 150 minutes. Samples of 3.5 ml were taken in test tubes for visual evaluation.

[5] = Decolorization of dyes; set-up: key to Decolorization of Indigocarmine, Time 30 min / Decolorization of Indigocarmine, Time 90 min: −: no visually detectable change; +: visually detectable fading of the colour; ++: considerable fading of the colour; +++: complete/almost complete decolorization; conditions: 50° C., pH 6; for Decolorization of Indigocarmine, Time 30 min / Decolorization of Indigocarmine, Time 90 min: dye 12 mg/100 ml
Description: as §1

[6] = 20 nkat/g, mediator 1 mg/g, 30 min
[7] = 20 nkat/g, mediator 1 mg/g, 60 min
[8] = 100 nkat/g, mediator 5 mg/g, 30 min
[9] = 100 nkat/g, mediator 5 mg/g, 60 min
[10] = enzyme 20 nkat/100 ml, mediator 0 mg/100 ml
[11] = enzyme 20 nkat/100 ml, mediator 1 mg/100 ml
[12] = enzyme 200 nkat/100 ml, mediator 0 mg/100 ml
[13] = enzyme 200 nkat/100 ml, mediator 10 mg/100 ml

B1: TaLcc1: Recombinant Thielavia arenaria ALKO4197 laccase 1 (SEQ ID NO: 12) produced in Trichoderma reesei strains RF5597/RF5598 (protein)
chain: MKSWAAAVALMVGILSPHAAAAPPANPVQRDMLQVLEARQSGPTCNTPSNRACWTNGFDINTDYEVSTPNTGRTVAYQLTLTEKENWIGPDGVLKNVVMLVNDKIIGPTIRANWGDNIEVTVINNLKTNGTSMHWHGLRQLGNVFNDGANGVTECPIPPKGGRKTYKFRATQYGTSWYHSHFSAQYGNGVVGTIQIDGPASLPYDIDLGVFPLMDYYYRSADELVHFTQSNGAPPSDNVLFNGTARHPETGAGQWYNVTLTPGKRHRLRIINTSTDNHFQVSLVGHNMTVIATDMVPVNAFTVSSLFLAVGQRYDVTIDANSPVGNYWFNVTFGDGLCGSSNNKFPAAIFRYQGAPATLPTDQGLPVPNHMCLDNLNLTPVVTRSAPVNNFVKRPSNTLGVTLDIGGTPLFVWKVNGSAINVDWGKPILDYVMSGNTSYPVSDNIVQVDAVDQWTYWLIENDPTNPIVSLPHPMHLHGHDFLVLGRSPDELPSAGVRHIFDPAKDLPRLKGNNPVRRDVTMLPAGGWLLLAFKTDNPGAWLFHCHIAWHVSGGLSVDFLERPNDLRTQLNSNAKRADRDDFNRVCREWNAYWPTNPFPKIDSGLRHRFVEESEWMVR
modifications: Thielavia arenaria ALKO4197; (1)..(617) Deduced amino acid sequence of Thielavia arenaria ALKO4197 laccase 1 (Ta Lcc1)
[1]
  pI: 5.5-6.9
[2]; mediator 0 mg/g, 80° C.
  Increase of L*: 0.64
  L* after laccase treatment: 30.27
  b* after laccase treatment: −18.62
[2]; mediator 10 mg/g, 30° C.
  Increase of L*: 4.10
  L* after laccase treatment: 33.68
  b* after laccase treatment: −19.17
[2]; mediator 10 mg/g, 40° C.
  Increase of L*: 8.68
  L* after laccase treatment: 37.49
  b* after laccase treatment: −18.64
[2]; mediator 10 mg/g, 50° C.
  Increase of L*: 14.59
  L* after laccase treatment: 42.99
  b* after laccase treatment: −17.06
[2]; mediator 10 mg/g, 60° C.
  Increase of L*: 18.42
  L* after laccase treatment: 47.56
  b* after laccase treatment: −14.55
[2]; mediator 10 mg/g, 70° C.
  Increase of L*: 17.85
  L* after laccase treatment: 46.94
  b* after laccase treatment: −13.82
[2]; mediator 10 mg/g, 80° C.
  Increase of L*: 9.85
  L* after laccase treatment: 39.24
  b* after laccase treatment: −15.74
[3]; [6]
  Increase of L*: 12.24
  L* after laccase treatment: 40.61
  b* after laccase treatment: −16.16
[3]; [7]
  Increase of L*: 15.09
  L* after laccase treatment: 42.72
  b* after laccase treatment: −15.61
[3]; [8]
  Increase of L*: 21.88
  L* after laccase treatment: 49.84
  b* after laccase treatment: −13.75
[3]; [9]
  Increase of L*: 25.68
  L* after laccase treatment: 53.46
  b* after laccase treatment: −11.64
[4]; [10]
  Decolorization of Remazol Brilliant Blue, Time 30 min: −
  Decolorization of Remazol Brilliant Blue, Time 90 min: −
[4]; [11]
  Decolorization of Remazol Brilliant Blue, Time 30 min: −
  Decolorization of Remazol Brilliant Blue, Time 90 min: −
[4]; [12]
  Decolorization of Cibacron Brilliant Red 3B-P, Time 30 min: −
  Decolorization of Cibacron Brilliant Red 3B-P, Time 90 min: −
  Decolorization of Pontamine Bast Orange GRN, Time 30 min: −
  Decolorization of Pontamine Bast Orange GRN, Time 90 min: −
  Decolorization of Remazol Brilliant Blue, Time 30 min: −
  Decolorization of Remazol Brilliant Blue, Time 90 min: −
[4]; [13]
  Decolorization of Cibacron Brilliant Red 3B-P, Time 30 min: +++
  Decolorization of Cibacron Brilliant Red 3B-P, Time 90 min: +++
  Decolorization of Pontamine Bast Orange GRN, Time 30 min: +
  Decolorization of Pontamine Bast Orange GRN, Time 90 min: +
  Decolorization of Remazol Brilliant Blue, Time 30 min: ++
  Decolorization of Remazol Brilliant Blue, Time 90 min: ++
[5]; [11]
  Decolorization of Indigocarmine, Time 30 min: +
  Decolorization of Indigocarmine, Time 90 min: +++
[5]; [12]
  Decolorization of Indigocarmine, Time 30 min: −
  Decolorization of Indigocarmine, Time 90 min: −
[5]; [13]
  Decolorization of Indigocarmine, Time 30 min: +++
  Decolorization of Indigocarmine, Time 90 min: +++
[5]; in the presence of the mediator
  time until blue colour of Indigocarmine had turned to light yellow: < 30 min
